Measurements from patent US20060134087A1, “ITI-D1 Kunitz domain mutants as hNE inhibitors” (Dyax Corp., priority 1988, published 2006).
“Also recorded” adds a separate entry of the source. Like-named read-outs stand apart in the source and are kept apart here.

How the values were obtained:
[1] = target: T1, Elastase (porcine pancreas) (Sus scrofa, UniProt P00772); details: BPTI P1 derivatives, cited from earlier work
T1 construct: host or cells: porcine pancreas

[2] = target: T2, Trypsin (bovine pancreas) (Bos taurus, UniProt P00760); details: BPTI P1 derivatives; read-out: Dissociation constant (symbol); cited from earlier work
T2 construct: host or cells: bovine pancreas
T2 sequence (P00760 24-246): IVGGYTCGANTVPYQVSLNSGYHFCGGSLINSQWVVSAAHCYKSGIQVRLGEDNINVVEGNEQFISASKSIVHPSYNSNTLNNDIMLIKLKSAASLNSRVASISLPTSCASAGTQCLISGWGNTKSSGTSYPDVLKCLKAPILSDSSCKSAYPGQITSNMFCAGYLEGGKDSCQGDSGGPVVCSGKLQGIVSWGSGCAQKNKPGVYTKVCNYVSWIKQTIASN

[3] = target: T3, Chymotrypsin (bovine pancreas) (Bos taurus, UniProt P00766); details: BPTI P1 derivatives; read-out: Dissociation constant (symbol); cited from earlier work
T3 construct: host or cells: bovine pancreas

[4] = target: T4, Elastase (human leukocytes) (Homo sapiens, UniProt P08246); details: BPTI P1 derivatives; read-out: Dissociation constant; cited from earlier work
T4 construct: host or cells: human leukocytes
T4 sequence (P08246 30-267): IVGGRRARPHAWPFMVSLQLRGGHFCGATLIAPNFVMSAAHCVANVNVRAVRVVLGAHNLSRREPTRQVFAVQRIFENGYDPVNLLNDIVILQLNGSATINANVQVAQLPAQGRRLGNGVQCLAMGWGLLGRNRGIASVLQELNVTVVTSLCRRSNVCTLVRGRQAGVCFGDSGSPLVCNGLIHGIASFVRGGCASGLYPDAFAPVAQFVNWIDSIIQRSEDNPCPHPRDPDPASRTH

[5] = target: T5, hCG (Homo sapiens, UniProt P08311); details: cited from earlier work
T5 sequence (P08311 21-255): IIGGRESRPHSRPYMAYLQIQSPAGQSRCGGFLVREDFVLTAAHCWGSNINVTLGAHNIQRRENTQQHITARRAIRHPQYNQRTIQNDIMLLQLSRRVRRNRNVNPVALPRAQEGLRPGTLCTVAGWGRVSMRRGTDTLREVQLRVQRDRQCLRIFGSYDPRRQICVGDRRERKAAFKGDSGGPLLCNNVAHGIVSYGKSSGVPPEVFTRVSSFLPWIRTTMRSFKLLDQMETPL

[6] = target: T6, hNE (Homo sapiens, UniProt P08246); assay: pH stability, residual hNE inhibitory activity; assay type: physicochemical; details: 37° C., 18 hours; for Percent Residual hNE Inhibitory Activity: 1 μM protein
T6 sequence (P08246 30-267): T4 sequence (P08246 30-267)
Procedure: The stability of the proteins to exposure to pH conditions in the range of pH 1 to pH 10 was assessed by maintaining the inhibitors in buffers of defined pH at 37° C. for 18 hours and determining the residual hNE inhibitory activity in the standard hNE-inhibition assay. Proteins were incubated at a concentration of 1 μM. The buffers shown in Table 4 were formulated as described (STOL90) and used in the pH ranges indicated: […]
Proteins were incubated at 37° C. for 18 hours in buffers of defined pH (see text). In all cases protein concentrations were 1 μM. At the end of the incubation period, aliquots of the reactions were diluted and residual hNE-inhibition activity determined.

[7] = target: T6, hNE; assay: Resistance to oxidative inactivation by Chloramine-T, residual hNE-inhibition activity; assay type: physicochemical; details: for Percent Residual hNE-Inhibitory Activity: 20 minutes at RT
Procedure: At the end of the incubation period, the oxidation reactions were quenched by adding methionine to a final concentration of 4 mM. After a further 10 minute incubation, the quenched reactions were diluted and assayed for residual inhibitor activity in our standard hNE-inhibition assay.
Inhibitors were incubated in the presence of Chloramine-T at the molar ratios indicated for 20 minutes at RT. Oxidation reactions were quenched by adding methionine to a final concentration of 4 mM. Residual hNE-inhibition activity remaining in the quenched reactions is shown as a percentage of the activity observed with no added oxidant.

[8] = target: T6, hNE; assay: Temperature stability, residual inhibitory activity for hNE; assay type: physicochemical; parameters: Residual hNE Inhibitory Activity: unit not given here; details: for Residual hNE Inhibitory Activity: 18 hours, pH 7.0, 1 μM protein
Procedure: The stability of EPI-HNE proteins to temperatures in the range 0° C. to 95° C. was assessed by incubating the inhibitors for thirty minutes at various temperatures and determining residual inhibitory activity for hNE. In these experiments, protein concentrations were 1 μM in phosphate buffer at pH=7. As is shown in Table 40, the four inhibitors are quite temperature stable.
Proteins were incubated at the stated temperature for 18 hours in buffer at pH 7.0. In all cases protein concentrations were 1 μM. At the end of the incubation period, aliquots of the reactions were diluted and residual hNE-inhibition activity determined.

[9] = target: T6, hNE; assay: Kinetic on-rate of inhibitors reacting with hNE (progressive inhibition); assay type: biochemical
Procedure: The kinetic on-rates for the inhibitors reacting with hNE (kon) were determined from measurements of progressive inhibition of substrate hydrolytic activity by hNE following addition of inhibitor. For these experiments, a known concentration of inhibitor was added to a solution of hNE (0.847 nM) and substrate (25 μM) in 2 ml of reaction buffer in a plastic fluorescence cuvette. The change in fluorescence was recorded continuously following addition of the inhibitor. […] The enzymatic rate at selected times following addition of the inhibitor was determined from the slope of the tangent to the fluorescence time course at that time.
The kinetic constant kon for EPI-HNE-2 reacting with hNE was determined as follows. EPI-HNE-2 at 1.3 nM was added to buffer containing 0.867 nM hNE (I:E=1.5:1) at time 0. Measured percent residual activity was recorded as a function of time after addition of inhibitor. A least-squares fit program was used to obtain the value of kon=4.0×10^6 M^−1s^−1.
The kinetic off rate, koff, is calculated from the measured values of Ki and kon as: […] The values from such measurements are included in Table 30. The EPI-HNE proteins are small, high affinity, fast acting inhibitors of hNE. B. Specificity.

[10] = read-out: Dissociation constant

T1 sequence (P00772 27-266): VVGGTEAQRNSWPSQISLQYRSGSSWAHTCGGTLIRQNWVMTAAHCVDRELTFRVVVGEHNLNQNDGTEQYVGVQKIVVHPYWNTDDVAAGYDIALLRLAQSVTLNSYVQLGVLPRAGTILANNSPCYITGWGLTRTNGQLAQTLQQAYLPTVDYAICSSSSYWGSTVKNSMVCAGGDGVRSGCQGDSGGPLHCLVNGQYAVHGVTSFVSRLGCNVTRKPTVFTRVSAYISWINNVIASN

alanine
Kd [1, 10]: 28 nM | Kd [2]: ≥ 3500 nM | Kd [3]: > 3500 nM | Kd [4]: 2.5 nM

Bovine pancreatic trypsin inhibitor [BPTI]
Kd ([1]; read-out: Dissociation constant (symbol)): > 3500 nM | inhibition of Cathepsin-G ([5]; SWAI88, ODOM90): lacks | binding of hCG [5]: does not significantly bind hCG

valine
Kd [1, 10]: 57 nM | Kd [2]: > 3500 nM | Kd [3]: > 3500 nM | Kd [4]: 0.11 nM

EPI-HNE-4: EPI-HNE-3 with substitution A3E; SEQ ID NO 027 (EACNLPIVRGPCIAFFPRWAFDAVKGKCVLFPYGGCQGNGNKFYSEKECREYCGVP; Epi-HNE-4)
pH stability ([6]; pH 1 to pH 10, 1 μM): stable when incubated at low pH, but showed some loss of activity at high pH; also recorded: retains almost full activity to pH 8.5 | Percent Residual hNE Inhibitory Activity ([6]; Incubation pH 1.0): 98% | Percent Residual hNE Inhibitory Activity ([6]; Incubation pH 2.0): 100% | Percent Residual hNE Inhibitory Activity ([6]; Incubation pH 3.0): 96% | Percent Residual hNE Inhibitory Activity ([6]; Incubation pH 4.0): 94% | Percent Residual hNE Inhibitory Activity ([6]; Incubation pH 5.5): 109% | Percent Residual hNE Inhibitory Activity ([6]; Incubation pH 6.0): 99% | Percent Residual hNE Inhibitory Activity ([6]; Incubation pH 6.5): 100% | Percent Residual hNE Inhibitory Activity ([6]; Incubation pH 7.0): 93% | Percent Residual hNE Inhibitory Activity ([6]; Incubation pH 7.5): 109% | Percent Residual hNE Inhibitory Activity ([6]; Incubation pH 8.0): 83% | Percent Residual hNE Inhibitory Activity ([6]; Incubation pH 8.5): 86% | Percent Residual hNE Inhibitory Activity ([6]; Incubation pH 9.4): 40% | Percent Residual hNE Inhibitory Activity ([6]; Incubation pH 10.0): 34% | Percent Residual hNE-Inhibitory Activity ([7]; Molar Ratio CHL-T:Inhibitor 0): 100% | Percent Residual hNE-Inhibitory Activity ([7]; Molar Ratio CHL-T:Inhibitor 1.0): 100% | Percent Residual hNE-Inhibitory Activity ([7]; Molar Ratio CHL-T:Inhibitor 3.0): 100% | Percent Residual hNE-Inhibitory Activity ([7]; Molar Ratio CHL-T:Inhibitor 5.0): 100% | Percent Residual hNE-Inhibitory Activity ([7]; Molar Ratio CHL-T:Inhibitor 10.): 104% | Percent Residual hNE-Inhibitory Activity ([7]; Molar Ratio CHL-T:Inhibitor 30.): 100% | Percent Residual hNE-Inhibitory Activity ([7]; Molar Ratio CHL-T:Inhibitor 50.): 100% | Percent Residual hNE-Inhibitory Activity ([7]; Molar Ratio CHL-T:Inhibitor .50): 100% | hNE-inhibition activity after exposure to Chloramine-T ([7]; all molar ratios tested (up to 50:1 for EPI-HNE-3 and EPI-HNE-4)): retain essentially complete hNE-inhibition activity | Residual hNE Inhibitory Activity ([8]; Temperature 0 ° C.): 100 | Residual hNE Inhibitory Activity ([8]; Temperature 23 ° C.): 103 | Residual hNE Inhibitory Activity ([8]; Temperature 37 ° C.): 98 | Residual hNE Inhibitory Activity ([8]; Temperature 55 ° C.): 98 | Residual hNE Inhibitory Activity ([8]; Temperature 69 ° C.): 82 | Residual hNE Inhibitory Activity ([8]; Temperature 85 ° C.): 63 | Residual hNE Inhibitory Activity ([8]; Temperature 95 ° C.): 48 | temperature below which full inhibitory activity is maintained ([8]; thirty minutes, 1 μM, phosphate buffer pH=7): below 65 °C | kon ([9]; [hNE] = 8.47 × 10^−10 molar): 10.6 10^6/M/s | koff ([9]; calculated from koff = KD × kon): 49. 10^−6/s
